Drawing on US6444641, this text covers plasma drug levels for one substance.

This assay has as its target serum albumin (UniProt P08835). Put plainly: cell-based or functional assay.
Sequence of UniProt P08835 (P08835 25-607 limits assumed): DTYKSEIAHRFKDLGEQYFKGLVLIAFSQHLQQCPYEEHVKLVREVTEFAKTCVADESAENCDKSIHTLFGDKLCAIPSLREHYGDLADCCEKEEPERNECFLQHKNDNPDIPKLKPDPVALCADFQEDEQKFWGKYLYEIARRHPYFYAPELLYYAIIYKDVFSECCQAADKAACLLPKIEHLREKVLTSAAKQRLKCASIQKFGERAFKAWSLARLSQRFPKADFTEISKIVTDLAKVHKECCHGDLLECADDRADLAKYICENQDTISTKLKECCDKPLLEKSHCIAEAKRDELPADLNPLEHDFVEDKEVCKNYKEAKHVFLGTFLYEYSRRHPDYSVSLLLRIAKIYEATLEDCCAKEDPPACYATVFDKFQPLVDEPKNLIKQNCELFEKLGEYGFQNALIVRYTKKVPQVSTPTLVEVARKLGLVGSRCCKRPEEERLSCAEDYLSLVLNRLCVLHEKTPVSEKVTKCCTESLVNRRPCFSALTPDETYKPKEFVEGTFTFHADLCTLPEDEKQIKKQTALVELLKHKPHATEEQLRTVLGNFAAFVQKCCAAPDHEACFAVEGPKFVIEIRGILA

In turn, “B29-N^ε-myristoyl human insulin (from UniProt P01308 90-110; P01308 25-54) (ligand)” returned a plasma drug levels at 100 minutes after subcutaneous injection (6 nmol/kg) in pigs, by double antibody radioimmunoassay of 18 fold.
